Measurements from patent US20040213780, “Methods and compositions for treating polyglutamine expansion-associated disease” (published 2004).

Target: Sp1 (UniProt P08047 P08047:2-785)
Experiment: EMSA; 5 mM DTT, 1 ug/ml poly(dI-dC); binding reduced 20% by GST-huntingtin Q20 and 70% by Q51; competed by 50-fold unlabelled probe
Settings: tags: purified Sp1, Promega; label: labeled (autoradiography)
Experimental: Chem. 273:26218, 1998) except that 5 mM DTT and 1 μg/ml poly(dI-dC) were used. GST-huntingtin fusions (0.2 μg/ul) were a gift of E. Wanker and were purified as described (J. S. Steffan et al., Nature 413:739, 2001). An approximate 1:1 ratio of purified proteins was used. Coomassie blue staining and Western blotting were used to examine the purified proteins.
Binding of Sp1 to a labeled consensus Sp1 site is shown in lane 1, and competition with a 50-fold molar excess of unlabelled probe is shown in lane 2 (plus sign). Incubation of Sp1 in the presence of GST-huntingtin with 20 glutamines (Qs) led to a 20% reduction in Sp1 binding (lane 3), whereas huntingtin with 51 Qs inhibited Sp1 binding by 70% (lane 4). The Sp1/DNA complex was identified with anti-Sp1 and is indicated by an arrow in all panels. […] Primary striatal cells were transfected with wild-type (HttQ 17) or mutant (HttQ75) huntingtin. EMSA was performed with a labeled D2 promoter fragment containing a Sp1 binding site. […] In competition experiments, a 100-fold molar excess of double-stranded nonradioactive oligonucleotide was used (lanes 2 and 4). […] EMSA was performed with nuclear extracts isolated from presymptomatic grade 1 and grade 4 HD brain tissue as described above herein. […] Competition experiments were performed as in (FIG. 2B) (lane 2). […] EMSA was performed as in FIG. 2C. […]

Sp1, sequence (P08047 2-785, one chain of several): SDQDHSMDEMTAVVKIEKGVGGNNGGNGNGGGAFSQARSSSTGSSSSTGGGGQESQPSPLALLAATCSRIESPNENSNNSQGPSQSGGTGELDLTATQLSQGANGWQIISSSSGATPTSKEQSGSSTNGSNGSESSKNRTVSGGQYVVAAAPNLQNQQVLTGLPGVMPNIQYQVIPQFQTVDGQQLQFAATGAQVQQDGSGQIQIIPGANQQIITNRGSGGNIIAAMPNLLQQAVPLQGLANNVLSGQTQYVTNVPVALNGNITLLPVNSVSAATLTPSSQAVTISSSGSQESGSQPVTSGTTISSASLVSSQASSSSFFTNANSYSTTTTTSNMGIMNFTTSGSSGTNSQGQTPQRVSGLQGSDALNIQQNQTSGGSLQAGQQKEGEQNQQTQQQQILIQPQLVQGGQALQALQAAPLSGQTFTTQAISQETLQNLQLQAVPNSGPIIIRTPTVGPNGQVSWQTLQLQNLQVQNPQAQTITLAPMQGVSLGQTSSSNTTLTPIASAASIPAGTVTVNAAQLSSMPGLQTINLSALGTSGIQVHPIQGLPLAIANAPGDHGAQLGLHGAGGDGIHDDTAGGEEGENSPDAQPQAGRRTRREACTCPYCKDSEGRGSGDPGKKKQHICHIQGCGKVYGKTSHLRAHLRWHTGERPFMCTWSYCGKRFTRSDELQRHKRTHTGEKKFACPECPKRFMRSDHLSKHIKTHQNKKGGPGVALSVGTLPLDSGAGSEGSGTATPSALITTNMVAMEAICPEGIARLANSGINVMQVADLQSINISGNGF

B1: Sp1 consensus site probe (dsDNA)
DNA 1: ATTCGATCGGGGCGGGGCGAGC
DNA 2: GCTCGCCCCGCCCCGATCGAAT
binding result: binds
